From PMC4749439 (Cell metabolism, 2015) come the findings set out here.

No end group written: not given here.

The labels stand for the following.
T1: S^35-HSC20 (UniProt Q8IWL3 1-235, S^35 label)
T1 sequence (looked up): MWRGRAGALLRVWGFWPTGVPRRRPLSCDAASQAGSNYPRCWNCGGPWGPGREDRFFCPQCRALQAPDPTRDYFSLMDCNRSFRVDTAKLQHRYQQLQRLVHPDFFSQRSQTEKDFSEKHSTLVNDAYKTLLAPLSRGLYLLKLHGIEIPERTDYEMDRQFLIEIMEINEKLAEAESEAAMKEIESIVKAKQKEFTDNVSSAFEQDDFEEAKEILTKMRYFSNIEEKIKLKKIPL

T2: S^35-SDHB (human, UniProt P21912 1-280, S^35 label)
T2 sequence (looked up): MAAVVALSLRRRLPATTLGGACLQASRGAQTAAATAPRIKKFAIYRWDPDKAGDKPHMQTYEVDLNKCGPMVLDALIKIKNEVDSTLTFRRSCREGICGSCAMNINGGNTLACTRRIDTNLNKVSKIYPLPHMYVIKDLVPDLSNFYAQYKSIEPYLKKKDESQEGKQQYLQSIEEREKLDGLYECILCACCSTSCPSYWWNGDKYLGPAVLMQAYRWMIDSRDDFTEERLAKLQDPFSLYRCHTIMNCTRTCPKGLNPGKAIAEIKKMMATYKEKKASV

B1: SDHB146-218 (domain or fragment, human, UniProt P21912 146-218, looked up)
chain: FYAQYKSIEPYLKKKDESQEGKQQYLQSIEEREKLDGLYECILCACCSTSCPSYWWNGDKYLGPAVLMQAYRW
B2: S^35-labeled FLAG-tagged SDHAF1 wild type (in vitro) (natural protein, human, UniProt A6NFY7 1-115, looked up)
chain: MSRHSRLQRQVLSLYRDLLRAGRGKPGAEARVRAEFRQHAGLPRSDVLRIEYLYRRGRRQLQLLRSGHATAMGAFVRPRAPTGEPGGVGCQPDDGDSPRNPHDSTGAPETRPDGR
modifications: S^35 label
B3: SDHAF1 G57R (in vitro) (natural protein, human, UniProt A6NFY7 1-115, looked up)
chain: MSRHSRLQRQVLSLYRDLLRAGRGKPGAEARVRAEFRQHAGLPRSDVLRIEYLYRRRRRQLQLLRSGHATAMGAFVRPRAPTGEPGGVGCQPDDGDSPRNPHDSTGAPETRPDGR
modifications: S^35 label
B4: SDHAF1 second LYR to triple alanines (in vitro) (natural protein, human, UniProt A6NFY7 1-115, looked up)
chain: MSRHSRLQRQVLSLYRDLLRAGRGKPGAEARVRAEFRQHAGLPRSDVLRIEYAAARGRRQLQLLRSGHATAMGAFVRPRAPTGEPGGVGCQPDDGDSPRNPHDSTGAPETRPDGR
modifications: S^35 label
B5: SDHAF1 clone 4 (residues 50–115) (domain or fragment, human, UniProt A6NFY7 50-115, looked up)
chain: IEYLYRRGRRQLQLLRSGHATAMGAFVRPRAPTGEPGGVGCQPDDGDSPRNPHDSTGAPETRPDGR
modifications: also: 35S label
B6: SDHAF1 clone 2 (residues 40–115) (domain or fragment, human, UniProt A6NFY7 40-115, looked up)
chain: AGLPRSDVLRIEYLYRRGRRQLQLLRSGHATAMGAFVRPRAPTGEPGGVGCQPDDGDSPRNPHDSTGAPETRPDGR
modifications: S^35 label
B7: SDHAF1 clone 5 (residues 61–115) (domain or fragment, human, UniProt A6NFY7 61-115, looked up)
chain: LQLLRSGHATAMGAFVRPRAPTGEPGGVGCQPDDGDSPRNPHDSTGAPETRPDGR
modifications: also: 35S label

The first experiment has as its target B2. Description: pull-down.
For B1, the binding result is listed as “binds”.

The next experiment deals with T1, S^35-HSC20. As to the kind of experiment: pull-down.
As to B2, the binding result was “binds”.

Take B3: the binding result is reported as “binds”.

Turning to B4, the binding result was “binds”.

For the molecule MSRHSRLQRQVLSLYRDLLRAGRGKPGAEARVRAEFRQH (domain or fragment, human, UniProt A6NFY7 1-39, looked up, also: 35S label) [SDHAF1 clone 1 (residues 1–39)], the binding result was “binds”.

In the case of MSRHSRLQRQVLSLYRDLLRAGRGKPGAEARVRAE (domain or fragment, human, UniProt A6NFY7 1-35, looked up, also: 35S label) [SDHAF1 clone 3 (residues 1–35)], the binding result was “binds”.

The next experiment concerns the target T2, S^35-SDHB. Description: pull-down.
In the case of B5, the binding result is on record as “binds”.

As for B6, the binding result is listed as “binds”.

For B7, the binding result was “binds”.
